From US11667697 come the findings set out here.

As usually defined, the EC50 is the midpoint of the concentration-response curve.

The target of assay [1] is MPXV ortholog of A33 (monkeypox virus). Description: lysate ELISA.
Assay [2] has the same target. As to the kind of experiment: cell-based or functional assay.
Assay [3] has as its target MPXV ortholog of the A27 VACV protein (monkeypox virus). Description: purified antigen ELISA. For orientation: An ELISA detects its analyte on a solid surface through an enzyme-linked reagent.
Assay [4] deals with VARV ortholog of A27 (variola virus). As to the kind of experiment: purified antigen ELISA.
The target of assay [5] is MPXV ortholog of the A27 VACV protein (monkeypox virus). Description: lysate ELISA.
Assay [6] deals with CPXV ortholog of A27 (cowpox virus). Description: lysate ELISA.
For assay [7], the target named is MPXV ortholog of the A27 VACV protein (monkeypox virus). As to the kind of experiment: cell-based or functional assay.
Assay [8] concerns the target VARV ortholog of L1 (variola virus). Description: purified antigen ELISA.
Assay [9] concerns the target CPXV ortholog of L1 (cowpox virus). As to the kind of experiment: lysate ELISA.
Assay [10] shares this target. Description: cell-based or functional assay.
Assay [11] addresses MPXV ortholog of L1 (monkeypox virus). Description: cell-based or functional assay.

B1: MPXV-39 (antibody, V domains shown)
VH: QVQLQQWGAGLLKPSETLSLTCAIYGGSLSGQYWSWIRQPPGRGLEWIGEIHHKGRTNYNPSLKSRVTISIDTSQRQFSLRLTSVSAADTAVYYCASGNYRLGQGTLVTF
VL: DVVLTQSPLTLPVTLGQPASISCRSSQSLVYSDGDTYLNWFQQRPGQAPRRLIYKVSKRDFGVPDRFSGSGSGTDFTLRISRVEAEDVGVYYCMQGTHWPRTFGQGTQVDIK
B1 returned an EC50 in assay [1] above 47 µg/mL. In assay [2], the PRNT Emax, MPXV EV+C' is 56% and the PRNT IC50, MPXV EV+C' was found to be 100 µg/mL.

B2: VACV-300 (antibody, V domains shown)
V domain 1: QVQLVQSGAEVKKPGSSVKVSCKASGGTFSSYAISWVRQAPGQGLEWMGGIIPIFGTANYAQKFQGRVTITADESTGTAYMELTSLRSEDTAIYYCARASEQWLASINWFDPWGQGTLVTVSS
V domain 2: QSALTQPASVSGSPGQSITISCTGTSSDVGSYNLVSWYQQHPGKAPKLMIYEVSKRPSGVSNRFSASKSGNTASLTISGLQAEDEADYYCCSYAGSSTLVFGGGTQVTVL
With B2, the EC50 in assay [3] was 0.14 µg/mL; in [4], 0.79 µg/mL; in assay [5] it was above 0.68 µg/mL; in assay [6] it was 0.06 µg/mL.

B3: VACV-303 (antibody, V domains shown)
VH: EVQLLESGGGLVQPGGSLRLSCAASGFTFSSYAMSWVRQAPGKGLEWVSAISGTGGNTYYADSVKGRFTISRDKSKNTLYLQMHSLRAEDTAVYYCATSLIWWLQSDYWGQGTLVTVSS
VL: DIQMTQSPSSLSASVGDRVTITCRASQSIASYLIWYQQKPGNAPKLLIYAASSLQSGVPSRFSGSGSGTDFTLTISSLQPEDFATYYCQQSYSTPQTFGQGTKVDIK
In [3], B3 registered an EC50 of 0.02 µg/mL. The EC50 in assay [4] is 0.16 µg/mL. Also, the EC50 in assay [5] stood at 0.004 µg/mL. For the same molecule, in [6], the EC50 was 0.004 µg/mL. In assay [7], the PRNT Emax, MPXV MV was found to be 51%; the PRNT Emax, MPXV MV+C' was 64%; the PRNT IC50, MPXV MV is 25 µg/mL; the PRNT IC50, MPXV MV+C' came out at 15 µg/mL.

B4: VACV-154 (antibody, V domains shown)
VH: EVQLLESGGGLVQPGESLRLSCAASGFTLRNYAMSWVRQTPGKGLEWVSAISGSGGSTYYADSVKGRFTISRDTSKNTLYVQMNSLRAEDTAVYYCAKIRLDSSGYSGAFDIWGQGTRVTVSS
VL: SYELTQPPSVSVSPGQTARITCSGDALPKQYASWYQQKPGQAPVLVIYKDSERPSGIPERFSGSSSGTTVTLTISGVQAEDEADYYCQSADSSGTYPVVFGGGTQLTVL
For B4, the EC50 in assay [3] came out at 0.06 µg/mL. Moreover, in assay [4], the EC50 worked out at 0.3 µg/mL. Moreover, the EC50 in assay [5] worked out at 0.02 µg/mL. The molecule further showed an EC50 in assay [6] of 0.02 µg/mL. In [7], this molecule came in with a PRNT Emax, MPXV MV of 66%; a PRNT Emax, MPXV MV+C' of 69%; a PRNT IC50, MPXV MV of 15 µg/mL; a PRNT IC50, MPXV MV+C' of 14 µg/mL.

B5: MPXV-83 (antibody, V domains shown)
VH: QVQLVESGGGVVQPGRSLRLSCAASGFTFSSYSMHWVRQAPGKGLEWVAVISFDGRSNYYADSVRGRFTISRDNSKKTMYLQMNSLRLADTAVYYCARGGIGAPDPRNGLEVWGRGAPVTLSS
VL: DIQMIQSPSSLSASVGDRVTISCQATQDISNSVNWYQQKPGKAPKLLIYDASTLETGVPSRFSGGGSGTHFTFTISSLQPEDIATYYCQQFHSLPPTFGQGPKGISK
The molecule B5 displayed an EC50 in [8] of 0.065 µg/mL. Besides, in assay [9], the EC50 came to 0.03 µg/mL. In assay [10], the PRNT Emax, CPXV MV turned out to be 69%; the PRNT Emax, CPXV MV+C' was 78%; the PRNT IC50, CPXV MV was determined as 0.2 µg/mL; the PRNT IC50, CPXV MV+C' was 0.1 µg/mL. Further, in assay [11], the PRNT Emax, MPXV MV+C' worked out at 67% and the PRNT IC50, MPXV MV+C' was 12.5 µg/mL.
